Measured values taken from the DeepSol protein solubility set.

Assay: soluble on expression in E. coli; label from the status in PepcDB or PDB records

| Sequence | soluble on expression in E. coli |
| --- | --- |
| MKRFLLLLCALLSFSALAAPKADLWPYWQQSNGVNQTSISHLEWQQLLDSYLVTRGDNTLFRYNQVSFADKTKLKQYIQRLASLNPLQYRQAEQYAYWVNLYNALTVHLILDNYPITSITKLGGLFSFGPWDQGVIIINGKSLTLNDIEHRILRPIWQDPRTHYAVNCASLGCPNLQTQAFTAENTQTLLESAAKTFINSKKGVSIEGDTAKISSIYEWFAVDFGGEKEVFNHIRKYAPQYNHFSGRVKYDYDWSLNQADLEHHHHHH | not soluble |
| MSLALLNVDKLSVHFGDESAPFRAVDRISYSVKQGEVVGIVGESGSGKSVSSLAIMGLIDYPGRVMAEKLEFNGQDLQRISEKERRNLVGAEVAMIFQDPMTSLNPCYTVGFQIMEAIKVHQGGNKSTRRQRAIDLLNQVGIPDPASRLDVYPHQLSGGMSQRVMIAMAIACRPKLLIADEPTTALDVTIQAQIIELLLELQQKENMALVLITHDLALVAEAAHKIIVMYAGQVVETGDAHAIFHAPRHPYTQALLRALPEFAQEGHHHHHH | not soluble |
| STARVICAGFGGQGVMSMGQLLTYAGMLEGKEVSWLPSYGPEMRGGTANCAVTVSNEPVGSPLITDDATAAILLNIPAFEKFKDDVIPGGKIIVNSSLIKEKVDRTDVDVYYIPANELAAELGNDKVANMIMLGAYLKVSDTVDIESVLEAFKKVFGPRKEKFVPLNREALQKGMDATC | not soluble |
| MSQVQNNSSVSELLASNSGSIKSYRKDEEDPQDRFLKLLVTQMQNQDPLSPMDNAEVTSQMAQISTVSGIDKLNTTLEKLVADSDARRSFEAATMIGRGVLVPGTDMQLENQAAIGGFELAESVDKLTVTVKDSAGITVREIDLGAQAAGVGTFVWDGMANNGNAAADGQYSFALKAIRADKEVSSSALAFGSVSSAQAGKDGALLEVGRLGYVGMDAVKKIF | not soluble |
| MSLRKLYTKELSVTGSAINHHRIFDSSAHFKGALTIKILPENTAMFNPLHESYCLPMDTNLFKINSIDVPIRINSTEEIEYIELEYRDLYTNSVELRSLSKKDFKIIDNPKSFLKKDQSVLKSHSNDFEEGSTIRYLAVTLQDIGFYQIKKIVDSKKLNLKIHQSHLVVPYCPIASITGTGSNDRCIGDSDNVSFEIQGVPPMKLAYSKIVNGQTFSYVDSSLQPEYFESPLQSSKSKQSFTQGELNDLKWGRNQPVNINLDSSITQDGKFAYKIDKITDGLGNVVDFTSLPEELKKREGHHHHHH | soluble |
| MGSDKIHHHHHHMVSIIDFYVLQKRPSNGGGFDIAIGNPPYISAPTQIASPELNEQRQRIVASKKYKSLNEKWDLYVPFMELGMQLLCPNGVFSMIVPYPLTNQKYGKKLRKMIVEEYRLLEIADLNGTKIFENATVSNCIPFIQNSQPEGELRITQIFEDKTIREVLSKSPKALKLDKKNYVWNLTEEERTGNRFANMNVLGDFCYISVGMVVNANEKDAQGAFKKEDLISDTYDAIHCRKYIEAKDIDKFQVKRVRYLEWNTERCPEKLRRPTFRELYDRPKLIMNCLGTINVTIDAEEHFLHNHSIYCAILWKDLKDVSNKSISSSVKKFSKHNREAMESLSEKVDLYYLLGILNSSMADQLLTDQRGGDYHIYPEHIRNLPIPVPQREIQNAIGEIAKQILLIRETNTDYSELEEQLNNLVEALYQ | not soluble |
| MISSWEQKNNCVMPEDVRNFYLMTNGFHMTWSVKLDDHIIPLGSMVINGISKLTQLIQSSVYSLPNAPTLADLEDDSQEGNEDHQLEKPHFDCRSAIFELDSCGGNGKVCLVYKNGKPGLAHDTEIWFLDRALYWHFLTDTFTAYYRLLITHLGLPQWQYAFTSYGISPQAKQWFSMYKPITYNTSLLTEEPDTFVNKLDPSKVFKSKNKILIPKKKGPVQPVSGQKGPGPLAPPTSKPSAGCGNPVRK | not soluble |
| GSTAIGINDTYSEVKSDLAQQKAEMELSDLIRKGYHKALVKLKLKKNTVDDISESLRQGGGKLNFDELRQDLKGKGHTDAEIEAIFTKYDQDGDQELTEHEHQQMRDDLEKEREDLDLDHSSL | soluble |
| MALALTLREYEFSVLLLEARELPEKVDDPRPLALSYGSRLILQRLDIWKNLTQPAPITTIHISNRGHFGHAVLTPDDAGVPALGYVVNYHDLYHSMGRAIRGSNAVYQTNALVTAIRTDLSLAQVAYQQGSTTRQVRARLLVLADGGKLAEQIDGVRYHTYDYQQTAIVANVKVESPRPGTAFERFTLNGPLALLPSGEGYALVWTMPAAAAEKILKLDDRSFLLHLHEQFGDRMGEFTHVGPRSSFPLILKHASTITGHRAVLIGNAAQALHPVAGQGFNLGLRDAWELASEISRIPSGTPGEPGSTRMLAAYSRRRQSDKRISRLFTDSLVKLFTADLPLVQTCSGMGLAALDNLPPARRLIAHQMIFGTKGWFIGLEHHHHHH | soluble |
| LSKVVIRRLPPTLTKEQLQEHLQPMPEHDYFEFFSNDTSLYPHMYARAYINFKNQEDIILFRDRFDGYVFLDNKGQEYPAIVEFAPFQKAA | soluble |
| MGSSHHHHHHSSGLVPRGSHMAAMMSLNDFLSSVLPVSEQFEYLSLQSIPLETHAVVTPNKDDKRVPKSTIKTQHFFSLFHQGKVFFSLEVYVYVTLWDEADAERLIFVSKADTNGYCNTRVSVRDITKIILEFILSIDPNYYLQKVKPAIRSYKKISPELISAASTPARTLRILARRLKQSGSTVLKEIESPRFQQDLYLSFTCPREILTKICLFTRPASQYLFPDSSKNSKKHILNGEELMKWWGFILDRLLIECFQNDTQAKLRIPGEDPARVRSYLRGMKYPLWQVGDIFTSKENSLAVYNIPLFPDDPKARFIHQLAEEDRLLKVSLSSFWIELQERQEFKLSVTSSVMGISGYSLATPSLFPSSADVIVPKSRKQFRAIKKYITGEEYDTEEGAIEAFTNIRDFLLLRMATNLQSLTGKREHRERNQPVPASNINTLAITMLKPRKKAKALPKT | soluble |
| MSLKAPVDFEQEVAPLLSQRCVSCHSPNIKKGELSLAGPEDLLANGYVVPGDPAGSYLLEVVSPAGDDPAAMPKLGDALAEPEVALLRRWIEQGAVWPDGFVIREASKADRSWWSLQPLADIHPPEVAAAPAAWRQNPIDRFVWAKLSEANLKPNSPADRRTLIRRATFDLTGLPPTAEEIDTFVASDSPDAYPQLIDRMLASPRYGERWGRHWLDVIRFGESRGFERNQIITNLWPFRDYVIRSINEDKPFDQFIREHLAGDVIAPNTPQVEVGSAFLVAGPYDDVGNQDPAQAAQIRANTIDEMIRASSEAFLGLTIGCARCHDHKFDVISQRDYYAMYATFAGVKHGERAVATSEQREGHHHHHH | not soluble |
| MGSDKIHHHHHHMKEWRRNILGRELVVQYGKVAKQSSGSALVRFGDTVVLATANISDKAVEGIDFVPLTVEFQERFYAAGKIPGGFIKREGKPSESAILSARLIDRPIRPLFPKKLRNEVQVIVTVLSVDPNVPPDVVGIFAASLALNVSKIPFEGIVAGIRVGYRDGQFIALPSEEDIEKGLMDITVAGTKDAVTMVEGEAKEVTEEDMVKALRFAHSVIKELVDFQEEILSEFNVEKIPVVEPTPPEGLVEAFKDLLNKEELERRILVKVKKEREVALKEYEEQLLNQIAEKLSVTDLEGIKPFVSELYEDAVKKTMRRLIVEKGIRADGRKPTEIRPISCEVGLFPRTHGSALFTRGETQSLGIVTLGAPMDVQIIDTLLEEGVKRFMLHYNFPPFCTGEVKPLRGPSRREIGHGHLAERALKNMLPPEEEFPYTIRVVSEILESNGSSSMATVCSGSLALMDAGVPIKKHVAGIAMGLILEEDAEIILTDIIGMEDHYGDMDFKVAGTRDGITAFQMDCKVSGVSDELLMKALMQAREARMYILDRMYETISAPRPHLSKYAPIIKVTKVDPEKVADVIGPGGRVIKKIIKDFDVKVEIDDETGLVKVVGSSEENVDKAIELIREIAKEIEVGEVLEGKVTRIEPYGLFIEVRPGKIGLLHQSKVGEDMRQFLKKVKVGDTIKVQVINIDDLGRLQFKRVTEGENTQHGKTHSKRN | not soluble |
| MSETKERLCIYADFPYEFAVCAPRTDCPKREQCLRASAYDGVLARGLQKITVINPLIPTSEQGCKAFADNTPVLFAHGITHLYDELPHHAVQSLKHRLLTYFGKTTYYRIYRKERYITIQEQDYIRDSFVRAGFSSDLIRYDAMVYMYELQSAMVKSD | not soluble |
| MGSDKIHHHHHHMSTLDQSGTFHLAGRNIRRLGYGAMQLAGKGVFGPPKDREEAIAVVREAVDSGVNHIDTSDFYGPHITNQIIREALHPYADDLLIVTKVGATRGEDASWNAAFSKEELTQAVHDNLRNLGKEVLDVVNLRAMFDVHGPAEGSLAAPLEVLADLQRQGLIRHIGVSNVTPRQITEAGEIVEIVCVQNQYNLAHRQDDALIDTLAAQGIAYVPFFPLGGFSPLQSTVLSDVATQLDASPLQVALAWLLKRSSNILVIPGTSSRAHLRQNLAAASLDLPDSAMTALAAIGG | not soluble |
| MSTITKEWLLKTIAELEEERDATPGAVNEDAAMALAAMKLALASLEAEPVAWLLSGGGAKNNVSFDSGNAYAAQLREVTPLYTAPPAPVSVPAAMEIDDDFDSAFEHGKAVGWNAYRAAMLQAEPVSNSDELPLDYLQGHKDGLEWAAQLAEANHPQTGDWLYDDQIELARAIRKGPDMPTVQGGNSPVIPDGWVMVPVELTPDMRAAWDSAPYTDDDDNDMQAAYRAMIAVAPQWKVK | not soluble |
| MGSDKIHHHHHHMTTLALTGDSILQRRLLSTSDPVIKPLFDLIRGCDAAFTNLEVLPNDYRGDPAFDSGGSHFGAPSWVLDDLVEAGFGMFSTATNHTLDYSISGLEYGLDQLDKRGLCHAGAGRHLEEARRAAYLTTPNAAIGMVACGSTYTKGQEAARQTAAMQGRPGLNPLWPDSTYEVTAEQMAVVKEMAEGLGLEKFRQIRISTGFAFEAPEGIFPFNGMNFRVGEQTRHVRHPNPKDLAAIIRWVEEAKLASDIALVSIHAHEHADEKDQPADFIVEFAHAVIDAGADLVVGHGPHLLRGMEIYKGKPIFYSLGNFIGQNEMVRQLPGESYDRFHVDDRLTPTQLYKQRTLDDQKGFPSDERYWQTVVPICHFEGDGLVDVEIHPVSLGLGEQRHRRGRPRLAHGAEAESILNRFSSLSYEFGSTLEVGDTCANAVL | not soluble |
| MAHHHHHHMFAIRCPASMLWHPSVHHSLLLLRALEQPHTLLLDTHTASRGRLSVPLLSECAREVRIQTPPGHHEFDSPAGASTERSVLLYRAEDLLHIVNRPLSAGHDLGAACPTQSGVFASLLEYLEASTVSSHVISAIDALLVSLNTGDMETMRQTHACLVELIERLEASITDESLSEAHRTDQKEPLSTWPLFCTLQFLIEEGGMLTSAFPRTNKAYTRLCHSSKAVALHRRLVQRTVEQLLDVGSSANADVSQGARVEMNYPAKGFLREVQRHLASYNRSMEERTTDGVSGEKGPLNSRASGGRLGIQAVQARLPWTLQARPLRKG | soluble |
| MGSDKIHHHHHHMLPMADQIQTLQEQVLQARSNGQKLNIVGGGTKSFMGRQGCAEAGTLSLAEHTGVVEYHPVELVLTVRAGTPLKEIEAVLAEQGQCLHFEPPHFGDASTIGGTLACNLSGPARPWAGSVRDQVLGIRLLNGKGEHLRFGGQVMKNVAGYDVSRLQAGAMGTLGVITEISLKVMPKPAATTTLVREMTMDEVVEYMNRRAGEPKPITGACWVDGKVYLRLAGAKSAVEATAEQWGGQVLADGEQFWRQVQDMQHPFFDDPELPLWRFSVDSTAKTPELDGPWMIDWAGSQRWYRGQASLDQLEPLARAAGGQVSLFRGGDRTGEVMHGQPQALKTIQQRVKKSFDPDAIFNPGRLYSWL | not soluble |
| MGETTAEAKKDPSSIRVVALDWRYEEILHALGITPVGIVEIGKSKEPQTLKGELEGVTSVGQAKQPNLEVIQSLEPDLILASPTRQAAIMDQLKEIAPTHAYGDTSYTEVLDAMDDIATKVGAEDKAKEVRTRIESKIAQAKNKVEPGTRTALIGWSKNTLYTWVKDSFAGSLLTAAGYEYGYDGEKSAIESKTDVAELTGDKLPEMKLDVMYLYNDIEGFRSSPYADVVSNIVDVEQDTWSRSRGPLAAEAMLDQIINSLEHHHHHH | not soluble |
